Results reported in patent CN113621064A (FUZHOU MAIXIN BIOTECHNOLOGY DEV CO LTD, dated 2021).

Target: T1, CD117蛋白 (c-kit, 干细胞因子受体) (human, UniProt P10721 26-976)
T1 construct: whole, on cells; Endogenous antigen in tissue sections (immunohistochemistry); The abstract names it as human; also called 人CD117抗原
Assay: immunohistochemistry on a tissue array of 28 gastrointestinal stromal tumours

T1 sequence (P10721 26-976): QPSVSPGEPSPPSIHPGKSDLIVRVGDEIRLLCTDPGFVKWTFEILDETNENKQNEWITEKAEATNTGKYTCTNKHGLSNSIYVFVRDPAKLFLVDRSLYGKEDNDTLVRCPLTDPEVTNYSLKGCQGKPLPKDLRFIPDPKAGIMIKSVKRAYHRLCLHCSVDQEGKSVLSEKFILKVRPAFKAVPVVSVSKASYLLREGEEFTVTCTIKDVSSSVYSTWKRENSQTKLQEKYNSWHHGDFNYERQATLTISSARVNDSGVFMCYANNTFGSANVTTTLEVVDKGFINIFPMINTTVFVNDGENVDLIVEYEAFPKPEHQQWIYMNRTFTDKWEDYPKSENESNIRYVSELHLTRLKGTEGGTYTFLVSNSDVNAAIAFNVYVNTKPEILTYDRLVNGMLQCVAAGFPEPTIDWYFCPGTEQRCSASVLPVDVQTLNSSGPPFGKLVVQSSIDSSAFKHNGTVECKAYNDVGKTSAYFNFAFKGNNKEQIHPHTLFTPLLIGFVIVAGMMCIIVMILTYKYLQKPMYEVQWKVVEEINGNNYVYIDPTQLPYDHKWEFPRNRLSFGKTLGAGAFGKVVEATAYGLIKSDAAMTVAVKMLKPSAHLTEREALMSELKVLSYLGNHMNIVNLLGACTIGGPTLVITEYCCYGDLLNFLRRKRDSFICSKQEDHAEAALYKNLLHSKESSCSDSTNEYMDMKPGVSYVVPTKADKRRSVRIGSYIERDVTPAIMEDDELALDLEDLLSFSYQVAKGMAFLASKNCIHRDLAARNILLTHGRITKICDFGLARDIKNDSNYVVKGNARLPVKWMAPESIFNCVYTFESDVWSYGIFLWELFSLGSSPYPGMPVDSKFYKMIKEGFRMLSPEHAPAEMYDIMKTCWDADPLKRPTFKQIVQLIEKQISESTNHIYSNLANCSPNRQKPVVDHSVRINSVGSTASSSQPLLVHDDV

binding result: binds
B1: 抗CD117蛋白单克隆抗体 (小鼠杂交瘤细胞株33G5分泌, CGMCC NO 21977) (antibody, V domains shown)
VH: EVKLQESGPSLVQPGGSMRLSCVASGFIFSNYWINWVRQSPEMGLEWIAQVKLKSDNYATHYAGSVKGRFTISRDDSKSSVYLQMNNLRPEDTGIYFCLGRLDVWGAGTTVTVSS
VL: DIMLTQSPLSLSVTIGQPASISCKSSQSLLYTDGKTYLNWLLQRPGQSPKLLIYLVSKLDSGVPDRFSGSGSGTDFTLKISRVEAEDLGVYYCLQATHFPQTFGGGTKLEIK
notes: also called CD117(33G5); 33G5分泌的CD117抗体
